Here are results for 38 molecules from article PMC314469, “Protein Interaction Networks by Proteome Peptide Scanning” (PLoS Biology, 2004).

In test [1] the target is T1, amphyphisin SH3 (AMPH_HUMAN), P49418.
T1 chain: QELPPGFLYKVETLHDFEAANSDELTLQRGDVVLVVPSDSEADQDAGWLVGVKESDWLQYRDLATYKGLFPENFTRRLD
Description: SPOT array.

In test [2] the target is endophilin SH3 (SH3G2_HUMAN), Q99962. Description: SPOT array.

Regarding SMFFIRRPTLDINW [O94848 219-232], the figures for the normalised SPOT signal, Boehringer light units (BLU); mean over the file's lines of this peptide in test [1] and in test [2] were 58.5 and 744, respectively.
Turning to SLMTPRRPLSTSEK [Q9H5L8 147-160], the normalised SPOT signal, Boehringer light units (BLU); mean over the file's lines of this peptide amounted to 70 in test [1] and 1480 in test [2].
For SSGSPDRPGRRGRR [Q9BXQ6 174-187], the normalised SPOT signal, Boehringer light units (BLU); mean over the file's lines of this peptide came out at 3220 in test [1] and 150 in test [2].
In the case of SMGPPSKPPDEEHR [Q9NZ56 228-242], the normalised SPOT signal, Boehringer light units (BLU); mean over the file's lines of this peptide came to 49.6 in test [1] and 44.5 in test [2].
In the case of SLVLPSRPPIGLPP [Q9UHI4 161-175], the normalised SPOT signal, Boehringer light units (BLU); mean over the file's lines of this peptide in test [1] stood at 40.4; in test [2] it was 72.4.
The like results for SPSVPKRPKLPAPT [P18887 266-279] were, in that order, 1780 and 22000.
The like results for SPTVPIKPPSIPNG [Q13557 471-485] were, in that order, 66.5 and 112.
SPVLPARPPPPPLS [O00508 1114-1128]: the normalised SPOT signal, Boehringer light units (BLU); mean over the file's lines of this peptide in test [1] is 399; in test [2], 4080.
For SPSVPAKPPLAEFE [Q15742 478-492], the normalised SPOT signal, Boehringer light units (BLU); mean over the file's lines of this peptide turned out to be 47.9 in test [1] and 67.1 in test [2].
In the case of SLPLPKRPRRGAAP [O14746 231-244], the normalised SPOT signal, Boehringer light units (BLU); mean over the file's lines of this peptide in test [1] was 5540; in test [2], 9620.
The like results for SAVGPNRPPTVSQP [Q9UFD8 131-145] were, in that order, 51.4 and 969.
The like results for SLRVPKRPIINTPV [Q9HCU4 2269-2282] were, in that order, 53.7 and 2480.
In the same order, the values of SPKSPGRPWKSVSE [P01042 611-624] are 228 and 117.
As to SNPVPPRPPPPSLA [Q9UBP0 16-30], the figures for the normalised SPOT signal, Boehringer light units (BLU); mean over the file's lines of this peptide in test [1] and in test [2] were 143 and 11600, respectively.
The like results for SPRALWRPPRRRTQ [O94807 430-443] were, in that order, 1010 and 1210.
The like results for SPQAPRRPLPQVAT [Q13421 406-419] were, in that order, 587 and 437.
The like results for SPVLPARPPPPPLP [O75412 1038-1052] were, in that order, 713 and 1520.
SPEAPRRPKQRPAP [O00294 24-37]: the normalised SPOT signal, Boehringer light units (BLU); mean over the file's lines of this peptide in test [1] was found to be 62.1; in test [2], 319.
The like results for SNTPPPRPPKPSHL [Q8WWW8 303-317] were, in that order, 2120 and 18000.
In the same order, the values of SPARPRRPHASRDG [Q9H8S7 107-120] are 13800 and 8710.
The like results for SPPELKRPRLDENK [Q13112 538-551] were, in that order, 51 and 77.2.
With SPVHLRRPQSPGAS [Q9Y556 324-337], the normalised SPOT signal, Boehringer light units (BLU); mean over the file's lines of this peptide turned out to be 31.7 in test [1] and 56.3 in test [2].
Regarding SSELIERPSKKDGF [Q9H0X9 173-186], the figures for the normalised SPOT signal, Boehringer light units (BLU); mean over the file's lines of this peptide in test [1] and in test [2] were 120 and 71.5, respectively.
In the same order, the values of SPGPPYRPPSQRLR [Q8WVQ2 69-83] are 547 and 5840.
As for SPGFPARPGRGRPY [Q9UQ90 30-43], the normalised SPOT signal, Boehringer light units (BLU); mean over the file's lines of this peptide was 568 in test [1] and 754 in test [2].
In the same order, the values of SPDKFKRPTPPPSP [Q16204 419-432] are 15.7 and 35.9.
The like results for SLPRPRRPLPTQQQ [Q9P0U4 231-244] were, in that order, 509 and 3100.
The like results for SSGRPGRPPGPAAA [Q99491 157-171] were, in that order, 72.6 and 1800.
As to SLPSPSKPPIQQPT [Q9Y6V0 260-274], the normalised SPOT signal, Boehringer light units (BLU); mean over the file's lines of this peptide came out at 55.1 in test [1] and 94.9 in test [2].
Regarding SPDSLSRPRRTVFT [Q9P217 544-557], the normalised SPOT signal, Boehringer light units (BLU); mean over the file's lines of this peptide was 482 in test [1] and 90.9 in test [2].
Turning to SPPSPDRPPHSQTS [Q03164 2117-2131], the normalised SPOT signal, Boehringer light units (BLU); mean over the file's lines of this peptide in test [1] worked out at 56.4; in test [2] it was 69.3.
In the same order, the values of SPGVLRRPRRRPAA [Q9Y469 13-26] are 2430 and 190.
Regarding SPAPPHKPPNTREN [P51816 884-898], the normalised SPOT signal, Boehringer light units (BLU); mean over the file's lines of this peptide in test [1] turned out to be 48.2; in test [2], 78.5.
In the same order, the values of SPPVPPRPPSSGPP [Q9UKN7 661-675] are 1270 and 1880.
In the same order, the values of SLRKLKRPPPPPRR [Q9P206 440-453] are 78.1 and 199.
In the case of SPRLPRRPTVESHH [O94883 131-144], the normalised SPOT signal, Boehringer light units (BLU); mean over the file's lines of this peptide amounted to 1290 in test [1] and 4830 in test [2].
The like results for SPIKPKRPFVESNV [Q9ULS2 141-154] were, in that order, 120 and 2110.
Regarding SPQEPKRPSQLPSP [O14686 4038-4051], the normalised SPOT signal, Boehringer light units (BLU); mean over the file's lines of this peptide in test [1] was determined as 52.9; in test [2], 33.
